Results as given in patent US20260009052, “CAS12 PROTEINS AND USES THEREOF” (GUANGZHOU REFORGENE MEDICINE CO., LTD., published 2026).

Assays:
[1] = target: T1, C12-279 Mut-02-1-5-426-858-860 (synthetic construct, I1R,L5R,Q186R,D352R,D426R,858R,L860R); test: cell_activity; PAM TTG
T1 chain: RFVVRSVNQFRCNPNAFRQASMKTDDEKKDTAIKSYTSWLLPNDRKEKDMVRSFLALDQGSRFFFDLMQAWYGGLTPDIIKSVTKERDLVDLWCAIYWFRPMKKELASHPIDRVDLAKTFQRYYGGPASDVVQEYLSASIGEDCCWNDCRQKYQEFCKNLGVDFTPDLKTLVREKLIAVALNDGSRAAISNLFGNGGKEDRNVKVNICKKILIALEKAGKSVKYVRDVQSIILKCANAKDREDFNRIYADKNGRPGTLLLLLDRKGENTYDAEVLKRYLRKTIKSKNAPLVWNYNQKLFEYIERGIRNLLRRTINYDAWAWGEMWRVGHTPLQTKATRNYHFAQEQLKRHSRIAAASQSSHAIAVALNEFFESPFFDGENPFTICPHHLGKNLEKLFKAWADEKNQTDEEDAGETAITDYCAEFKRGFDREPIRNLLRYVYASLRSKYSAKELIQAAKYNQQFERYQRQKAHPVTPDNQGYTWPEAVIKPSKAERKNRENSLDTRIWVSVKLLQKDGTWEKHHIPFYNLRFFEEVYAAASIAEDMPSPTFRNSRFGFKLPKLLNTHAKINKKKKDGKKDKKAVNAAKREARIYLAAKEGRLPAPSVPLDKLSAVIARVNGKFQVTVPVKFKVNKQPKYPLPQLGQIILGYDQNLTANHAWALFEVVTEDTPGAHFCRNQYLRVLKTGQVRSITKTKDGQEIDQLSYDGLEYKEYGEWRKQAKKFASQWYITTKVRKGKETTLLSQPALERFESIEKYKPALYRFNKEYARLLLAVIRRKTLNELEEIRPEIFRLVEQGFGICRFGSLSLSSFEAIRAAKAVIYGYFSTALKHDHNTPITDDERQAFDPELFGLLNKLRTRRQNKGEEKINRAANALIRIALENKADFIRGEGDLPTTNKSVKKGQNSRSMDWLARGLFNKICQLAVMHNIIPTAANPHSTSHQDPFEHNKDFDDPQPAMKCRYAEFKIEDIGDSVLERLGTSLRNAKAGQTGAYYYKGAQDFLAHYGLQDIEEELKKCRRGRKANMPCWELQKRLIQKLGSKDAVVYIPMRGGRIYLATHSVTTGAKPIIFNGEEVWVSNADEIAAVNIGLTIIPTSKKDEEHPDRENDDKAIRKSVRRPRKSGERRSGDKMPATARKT

[2] = target: T2, C12-279 Mut-02-1-426-846-858-860 (C12-279-V4) (synthetic construct, I1R,Q186R,D352R,D426R,846R,858R,L860R); test: cell_activity; PAM TTG; mutant PAM 5'-WTN-3' by Example 17
T2 chain: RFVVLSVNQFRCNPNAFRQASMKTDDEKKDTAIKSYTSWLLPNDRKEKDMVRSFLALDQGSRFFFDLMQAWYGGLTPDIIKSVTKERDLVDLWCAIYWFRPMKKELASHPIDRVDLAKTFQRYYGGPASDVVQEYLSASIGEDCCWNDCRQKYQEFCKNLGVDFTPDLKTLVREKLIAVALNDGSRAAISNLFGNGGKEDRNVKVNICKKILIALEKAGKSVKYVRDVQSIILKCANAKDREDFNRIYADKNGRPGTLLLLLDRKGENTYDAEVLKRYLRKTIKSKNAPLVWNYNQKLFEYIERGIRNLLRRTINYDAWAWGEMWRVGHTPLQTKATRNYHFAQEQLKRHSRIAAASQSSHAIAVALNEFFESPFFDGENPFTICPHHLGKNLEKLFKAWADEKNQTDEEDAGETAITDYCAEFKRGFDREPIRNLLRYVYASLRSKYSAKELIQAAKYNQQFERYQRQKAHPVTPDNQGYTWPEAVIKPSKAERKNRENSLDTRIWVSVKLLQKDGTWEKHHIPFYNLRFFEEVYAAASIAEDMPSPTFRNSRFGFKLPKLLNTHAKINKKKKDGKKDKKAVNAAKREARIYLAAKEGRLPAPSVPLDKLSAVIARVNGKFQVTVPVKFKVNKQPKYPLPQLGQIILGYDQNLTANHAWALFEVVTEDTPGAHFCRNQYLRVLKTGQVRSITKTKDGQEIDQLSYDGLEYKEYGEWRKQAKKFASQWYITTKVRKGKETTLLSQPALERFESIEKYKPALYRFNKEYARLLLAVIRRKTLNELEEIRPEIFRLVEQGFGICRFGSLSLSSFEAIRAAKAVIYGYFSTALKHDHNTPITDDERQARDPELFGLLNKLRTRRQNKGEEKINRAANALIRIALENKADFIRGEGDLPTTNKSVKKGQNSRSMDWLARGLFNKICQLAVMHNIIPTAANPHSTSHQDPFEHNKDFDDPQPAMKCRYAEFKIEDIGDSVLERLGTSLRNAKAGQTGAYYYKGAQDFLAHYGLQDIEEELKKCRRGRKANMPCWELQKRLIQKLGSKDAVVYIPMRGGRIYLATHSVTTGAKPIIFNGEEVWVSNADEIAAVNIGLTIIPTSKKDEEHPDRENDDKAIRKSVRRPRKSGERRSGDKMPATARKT

B1: C12-279 Reporter3 sgRNA ; Reporter3 target (ssRNA ; dsDNA)
RNA: GUAAUGCGUCUCCCAUUGACGCCUCACCUCGCGACGCAAUGAUG
DNA 1: CTCACCTCGCGACGCAATGATG
DNA 2: CATCATTGCGTCGCGAGGTGAG
Which results are given for B1?
binding signal [1]: 3.77 fold of C12-279; binding signal [2]: 3.88 fold of C12-279
